Measured values reported in PMC6822712.

Assays:
[1] = target: TrkC (rat) (rat) (UniProt Q03351)
[2] = target: TrkB (rat) (rat) (UniProt Q63604)
[3] = target: TrkB (human) (human) (UniProt Q16620)
[4] = target: TrkA (human) (human) (UniProt P04629)
[5] = target: TrkC (human) (human) (UniProt Q16288)
Sequence of UniProt Q16288 (Q16288 32-839): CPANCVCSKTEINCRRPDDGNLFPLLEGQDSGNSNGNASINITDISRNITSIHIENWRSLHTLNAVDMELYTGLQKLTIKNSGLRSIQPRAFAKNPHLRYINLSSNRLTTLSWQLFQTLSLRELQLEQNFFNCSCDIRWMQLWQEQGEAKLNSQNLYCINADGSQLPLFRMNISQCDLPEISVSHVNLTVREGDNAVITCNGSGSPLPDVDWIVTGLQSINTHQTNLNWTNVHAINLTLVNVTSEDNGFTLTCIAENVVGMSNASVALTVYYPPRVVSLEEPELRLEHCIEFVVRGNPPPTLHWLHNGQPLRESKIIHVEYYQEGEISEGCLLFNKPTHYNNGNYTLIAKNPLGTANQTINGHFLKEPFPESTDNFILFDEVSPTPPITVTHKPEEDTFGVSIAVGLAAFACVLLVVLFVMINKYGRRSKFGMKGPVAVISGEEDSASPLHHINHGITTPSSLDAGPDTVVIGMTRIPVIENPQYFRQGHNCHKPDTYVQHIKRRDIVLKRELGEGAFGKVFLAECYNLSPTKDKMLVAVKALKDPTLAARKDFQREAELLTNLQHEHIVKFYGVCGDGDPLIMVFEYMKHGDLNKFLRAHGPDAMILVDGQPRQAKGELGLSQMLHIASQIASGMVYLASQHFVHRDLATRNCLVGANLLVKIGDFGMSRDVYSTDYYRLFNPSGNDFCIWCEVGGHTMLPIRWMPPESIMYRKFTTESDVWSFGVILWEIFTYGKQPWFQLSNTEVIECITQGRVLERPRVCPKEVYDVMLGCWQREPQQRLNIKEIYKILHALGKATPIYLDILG

Sequence of UniProt Q03351 (Q03351 32-864): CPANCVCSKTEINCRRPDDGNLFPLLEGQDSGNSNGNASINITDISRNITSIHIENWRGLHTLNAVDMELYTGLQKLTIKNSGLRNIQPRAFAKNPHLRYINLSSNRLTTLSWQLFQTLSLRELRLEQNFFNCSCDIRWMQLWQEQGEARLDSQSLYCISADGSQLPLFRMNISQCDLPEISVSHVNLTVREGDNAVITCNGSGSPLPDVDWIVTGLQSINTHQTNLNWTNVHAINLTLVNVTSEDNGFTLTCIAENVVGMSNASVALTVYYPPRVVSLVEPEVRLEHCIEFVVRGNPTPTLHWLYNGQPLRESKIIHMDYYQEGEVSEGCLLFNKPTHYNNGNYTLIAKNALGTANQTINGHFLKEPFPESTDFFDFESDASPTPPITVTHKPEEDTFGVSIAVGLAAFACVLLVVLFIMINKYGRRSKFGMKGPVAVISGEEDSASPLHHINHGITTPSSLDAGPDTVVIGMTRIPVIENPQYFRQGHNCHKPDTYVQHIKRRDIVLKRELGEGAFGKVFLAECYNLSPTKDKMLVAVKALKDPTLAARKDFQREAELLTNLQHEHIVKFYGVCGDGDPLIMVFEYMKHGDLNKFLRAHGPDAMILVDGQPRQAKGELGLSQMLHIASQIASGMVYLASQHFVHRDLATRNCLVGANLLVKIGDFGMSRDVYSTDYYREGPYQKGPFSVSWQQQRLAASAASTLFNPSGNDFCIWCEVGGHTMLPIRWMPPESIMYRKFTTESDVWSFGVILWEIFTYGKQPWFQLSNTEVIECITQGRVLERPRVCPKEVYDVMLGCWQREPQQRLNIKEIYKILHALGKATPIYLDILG
Sequence of UniProt Q16620 (Q16620 32-822): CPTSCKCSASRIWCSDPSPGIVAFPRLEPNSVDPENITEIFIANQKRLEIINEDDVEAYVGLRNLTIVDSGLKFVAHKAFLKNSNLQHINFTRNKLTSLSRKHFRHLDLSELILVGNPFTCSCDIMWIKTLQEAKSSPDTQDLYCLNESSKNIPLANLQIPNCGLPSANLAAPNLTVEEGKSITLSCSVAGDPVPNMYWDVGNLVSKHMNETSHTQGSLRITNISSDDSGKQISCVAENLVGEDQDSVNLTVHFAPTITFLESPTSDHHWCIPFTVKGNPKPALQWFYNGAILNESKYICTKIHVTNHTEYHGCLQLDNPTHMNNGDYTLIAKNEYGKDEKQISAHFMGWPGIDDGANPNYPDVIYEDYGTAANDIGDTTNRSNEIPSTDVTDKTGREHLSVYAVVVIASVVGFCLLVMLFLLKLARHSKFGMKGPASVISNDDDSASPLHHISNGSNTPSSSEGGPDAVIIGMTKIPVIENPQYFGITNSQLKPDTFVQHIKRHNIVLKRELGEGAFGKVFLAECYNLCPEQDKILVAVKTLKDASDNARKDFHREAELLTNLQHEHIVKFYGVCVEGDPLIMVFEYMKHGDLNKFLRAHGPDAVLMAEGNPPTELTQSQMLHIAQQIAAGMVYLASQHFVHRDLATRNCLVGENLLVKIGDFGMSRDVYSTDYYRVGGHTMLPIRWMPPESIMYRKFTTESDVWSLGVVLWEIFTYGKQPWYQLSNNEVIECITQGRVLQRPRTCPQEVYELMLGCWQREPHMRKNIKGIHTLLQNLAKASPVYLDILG
Sequence of UniProt Q63604 (Q63604 32-821): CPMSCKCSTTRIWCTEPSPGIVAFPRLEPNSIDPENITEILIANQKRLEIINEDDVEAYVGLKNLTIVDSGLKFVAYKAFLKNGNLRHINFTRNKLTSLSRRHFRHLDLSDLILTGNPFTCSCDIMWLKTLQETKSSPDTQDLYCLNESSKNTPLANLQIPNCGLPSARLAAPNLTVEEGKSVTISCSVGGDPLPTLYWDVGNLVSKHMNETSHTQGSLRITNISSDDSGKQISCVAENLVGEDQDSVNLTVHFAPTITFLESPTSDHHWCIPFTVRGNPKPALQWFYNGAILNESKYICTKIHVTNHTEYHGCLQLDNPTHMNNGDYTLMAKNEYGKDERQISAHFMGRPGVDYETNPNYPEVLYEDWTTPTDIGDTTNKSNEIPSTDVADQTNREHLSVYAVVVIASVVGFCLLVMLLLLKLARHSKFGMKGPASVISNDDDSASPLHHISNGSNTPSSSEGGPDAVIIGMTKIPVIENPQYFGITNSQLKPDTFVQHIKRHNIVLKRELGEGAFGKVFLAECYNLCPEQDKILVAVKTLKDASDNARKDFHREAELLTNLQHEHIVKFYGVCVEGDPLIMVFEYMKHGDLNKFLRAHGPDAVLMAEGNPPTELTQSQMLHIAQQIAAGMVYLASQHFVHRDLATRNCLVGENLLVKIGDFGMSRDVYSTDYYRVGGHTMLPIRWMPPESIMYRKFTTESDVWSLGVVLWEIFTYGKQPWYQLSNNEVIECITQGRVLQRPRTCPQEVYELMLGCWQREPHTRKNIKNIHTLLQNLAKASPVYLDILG
Sequence of UniProt P04629 (P04629 33-796): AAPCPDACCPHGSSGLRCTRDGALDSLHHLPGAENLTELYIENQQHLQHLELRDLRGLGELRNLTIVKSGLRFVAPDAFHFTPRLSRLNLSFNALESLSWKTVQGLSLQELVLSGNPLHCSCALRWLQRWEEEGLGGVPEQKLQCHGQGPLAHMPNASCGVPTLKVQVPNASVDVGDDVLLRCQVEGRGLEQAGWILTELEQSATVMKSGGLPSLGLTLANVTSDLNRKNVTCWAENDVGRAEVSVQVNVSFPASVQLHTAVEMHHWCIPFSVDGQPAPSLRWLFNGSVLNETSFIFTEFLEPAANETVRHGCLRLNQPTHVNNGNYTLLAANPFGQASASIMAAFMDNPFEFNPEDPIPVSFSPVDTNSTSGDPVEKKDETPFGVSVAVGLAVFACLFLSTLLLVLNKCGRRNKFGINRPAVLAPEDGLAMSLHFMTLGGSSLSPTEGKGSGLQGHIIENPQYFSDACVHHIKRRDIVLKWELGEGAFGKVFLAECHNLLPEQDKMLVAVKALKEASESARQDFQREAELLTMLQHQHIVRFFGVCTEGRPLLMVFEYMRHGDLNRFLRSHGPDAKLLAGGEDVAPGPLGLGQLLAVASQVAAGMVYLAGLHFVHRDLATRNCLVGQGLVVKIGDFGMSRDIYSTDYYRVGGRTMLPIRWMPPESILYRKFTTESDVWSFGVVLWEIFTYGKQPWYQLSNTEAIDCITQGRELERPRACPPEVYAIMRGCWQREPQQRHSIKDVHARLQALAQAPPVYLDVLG

Molecule: BDNF (ligand)
- EC50 of ERK phosphorylation (phospho-ERK AlphaLISA), NIH3T3 cells stably expressing rat TrkC [1]: 4.97 nM
- Max (%) of ERK phosphorylation (phospho-ERK AlphaLISA), relative to 10nM NT-3, NIH3T3 cells stably expressing rat TrkC [1]: 76.2%
- EC50 of ERK phosphorylation (phospho-ERK AlphaLISA), HEK293 cells stably expressing rat TrkB [2]: 0.19 nM
- Max (%) of ERK phosphorylation (phospho-ERK AlphaLISA), relative to 10nM BDNF, HEK293 cells stably expressing rat TrkB [2]: 104%
- EC50 of ERK phosphorylation (phospho-ERK AlphaLISA), HEK293 cells stably expressing human TrkB [3]: 0.68 nM
- Max (%) of ERK phosphorylation (phospho-ERK AlphaLISA), relative to 10nM BDNF, HEK293 cells stably expressing human TrkB [3]: 114%
- EC50 of ERK phosphorylation (phospho-ERK AlphaLISA), NIH3T3 cells expressing human TrkA; no response [4]: > 100 nM
- EC50 of ERK phosphorylation (phospho-ERK AlphaLISA), NIH3T3 cells stably expressing human TrkC [5]: 26.8 nM
- Max (%) of ERK phosphorylation (phospho-ERK AlphaLISA), relative to 10nM NT-3, NIH3T3 cells stably expressing human TrkC [5]: 104%

B1: NT-3 (ligand)
chain: YAEHKSHRGEYSVCDSESLWVTDKSSAIDIRGHQVTVLGEIKTGNSPVKQYFYETRCKEARPVKNGCRGIDDKHWNSQCKTSQTYVRALTSENNKLVGWRWIRIDTSCVCALSRKIGRT
- EC50 of ERK phosphorylation (phospho-ERK AlphaLISA), NIH3T3 cells stably expressing rat TrkC [1]: 0.21 nM
- Max (%) of ERK phosphorylation (phospho-ERK AlphaLISA), relative to 10nM NT-3, NIH3T3 cells stably expressing rat TrkC [1]: 103%
- EC50 of ERK phosphorylation (phospho-ERK AlphaLISA), HEK293 cells stably expressing rat TrkB [2]: 10.7 nM
- Max (%) of ERK phosphorylation (phospho-ERK AlphaLISA), relative to 10nM BDNF, HEK293 cells stably expressing rat TrkB [2]: 83%
- EC50 of ERK phosphorylation (phospho-ERK AlphaLISA), HEK293 cells stably expressing human TrkB [3]: 2.05 nM
- Max (%) of ERK phosphorylation (phospho-ERK AlphaLISA), relative to 10nM BDNF, HEK293 cells stably expressing human TrkB [3]: 58.5%
- EC50 of ERK phosphorylation (phospho-ERK AlphaLISA), NIH3T3 cells expressing human TrkA [4]: 4.35 nM
- Max (%) of ERK phosphorylation (phospho-ERK AlphaLISA), NIH3T3 cells expressing human TrkA [4]: 73.6%
- EC50 of ERK phosphorylation (phospho-ERK AlphaLISA), NIH3T3 cells stably expressing human TrkC [5]: 0.4 nM
- Max (%) of ERK phosphorylation (phospho-ERK AlphaLISA), relative to 10nM NT-3, NIH3T3 cells stably expressing human TrkC [5]: 106%
